{"source": "paper PMC12730105", "about": "“The Interaction Between PGD2 and G6PD6 Is Involved in Aromatic Amino Acid Synthesis” (Biology, 2025)", "biological_target": "T1, MBP-G6PD6 (pMAL-c5x) (Arabidopsis thaliana, UniProt Q9FJI5 1-515)", "T1 construct": "glucose-6-phosphate dehydrogenase 6 (G6PD6), Arabidopsis thaliana, At5g40760, full-length ORF in pMAL-c5x; pMAL-c5x normally places MBP at the N-terminus; source: E. coli BL21 (DE3), purified (amylose resin)", "T1 sequence (looked up)": "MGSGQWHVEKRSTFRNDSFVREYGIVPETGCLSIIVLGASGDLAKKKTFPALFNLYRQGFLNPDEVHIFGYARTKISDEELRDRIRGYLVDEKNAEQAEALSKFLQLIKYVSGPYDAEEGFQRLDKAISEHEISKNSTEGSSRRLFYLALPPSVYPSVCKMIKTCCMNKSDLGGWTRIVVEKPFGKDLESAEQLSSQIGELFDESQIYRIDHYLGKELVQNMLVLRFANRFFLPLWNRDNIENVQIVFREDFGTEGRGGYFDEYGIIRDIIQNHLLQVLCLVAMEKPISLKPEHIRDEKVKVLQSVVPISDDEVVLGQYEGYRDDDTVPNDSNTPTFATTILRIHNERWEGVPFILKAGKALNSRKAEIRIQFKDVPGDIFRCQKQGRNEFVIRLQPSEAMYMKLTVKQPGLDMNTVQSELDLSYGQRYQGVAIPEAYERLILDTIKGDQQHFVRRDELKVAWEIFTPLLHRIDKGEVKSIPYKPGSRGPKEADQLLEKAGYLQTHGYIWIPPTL", "experiment": "pull-down; purified PGD2-HIS immobilised on Mag-Beads His-Tag resin (4 °C, 1 h), incubated with MBP-G6PD6 at 4 °C for 3 h, three washes, Western blot (the results speak of immobilised MBP-G6PD6)", "details": "both partners purified"}
{"binder": "PGD2-HIS (pET28a-PGD2) (enzyme, Arabidopsis thaliana, UniProt Q9FWA3 1-486, looked up, Printed as PGD2-HIS in the methods and HIS-PGD2 in the results; also called HIS-PGD2; source: E. coli BL21 (DE3), purified (His60 Ni Superflow resin)) MAVQPTRIGLAGLAVMGQNLALNIAEKGFPISVYNRTTSKVDETVERAKKEGNLPLYGFHDPESFVKSIQKPRVIIMLVKAGSPVDQTIKTLSAYLEKGDCIVDGGNEWYENTERREKAVAENGFLYLGMGVSGGEEGARNGPSMMPGGSYEAYKNIEDIVLKVAAQVRDSGPCVTYIGKGGSGNFVKMVHNGIEYGDMQLIAEAYDVLKSVGKLSNEELHSVFSDWNKGELESFLVEITADIFGIKDDKGDGHLVDKVLDKTGMKGTGKWTVQQAAELSVPAPTIESSLDARFLSGLKDERVQAAKVFKAGGFGDILTDQKVDKKQLVDDVRKALYASKICSYAQGMNLIRAKSIEKGWGLKLGELARIWKGGCIIRAIFLDRIKQAYDRNAELANLLVDPEFAKEIIERQSAWRRVVCLAINSGISTPGMSASLAYFDSYRRERLPANLVQAQRDYFGAHTYERTDVEGSFHTEWFKIARQSKI", "values": [{"measurement": "binding result", "value": "binds"}]}
